According to the nanobody polyreactivity screen of Harvey et al. (2022):

Assay: yeast display, Sf9 membrane polyspecificity reagent, FACS + sequencing; frameworks hold sequencing errors
How it was run: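 Nanobodies from a synthetic yeast display library (Saccharomyces cerevisiae BJ5465), induced 36–48 hours with galactose, were stained 1 hour at 4 °C with 10% biotinylated, detergent-solubilized Sf9 membrane reagent, enriched on streptavidin microbeads, then FACS-sorted. Anti-HA (expression) and streptavidin (reagent binding) fluorescence set low and high (top ~1%) gates. Polyreactivity labels come from the gate of origin. Genes were colony-PCR amplified, MiSeq 2 × 250 sequenced and filtered by CDR length.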

| Sequence | polyreactivity (PSR sort gate) |
| --- | --- |
| QVQLVESGGGLVQAGGSLRLSCAASGLTFRYNAMGWYRQAPGKERELVARISRNGGRTYYADSVKGRFTISRDNAKNTVYLQMNSLKPEDTAVYYCNVVYFVTTSPCYDYWGQGTQVTVSS | high polyreactivity |
| QVQLVESGGGLVQAGGSLRLSCAASGLTFRYYTMGWYRQAPGKERELVASITSGGITYYADSVKGRFTISRDNAKNTVYLQMNSLKPEDTAVYYCAKGSYRTTYGALGVKFGYWGQGTKVTVSS | high polyreactivity |
| QVQLVESGGGLVQAGGSLRLSCAASGLTFRYYTMGWYRQAPGNERELVASSTSGGITYYADSVKGRFTISRDNAKNTVYLQMNSLKPEDPAVYYCAKGSYRTTYGALGVKYGYWGQGTQVTVSS | high polyreactivity |
| QVQLVESGGGLVQAGGSLRLSCAASGLTFSCYAMGWYRQAPGKERELVASINYSGANTYYADSVKGRFTISRDNAKNTVYLQMNSLKPEDTAVYYCNTRRRRYQNERVTYDYWGQGTQVTVSS | high polyreactivity |
| QVQLVESGGGLVQAGGSLRLSCAASGLTFSDYAMGWYRQAPGKERELVAAITWRGTSTYYADSVKGRFTISRDNAKNTVYLQMNSLKPEDTAVYYCAARKYTGSGTRYYYWGQGTQVTVSS | high polyreactivity |
| QVQLVESGGGLVQAGGSLRLSCAASGLTFSDYTMGWYRQAPGKERELVAAISDSTGSTYYADSVKGRFTMSRDNAKNTVYLQMNSLKPEDTAVYNCIAYGYYHRLYSYTYGYWGQGTQVTVSS | low polyreactivity |
| QVQLVESGGGLVQAGGSLRLSCAASGLTFSGNTMGWYRQAPGKVRELVAAISSDGSTNYADSVKGRFTISRDNAKNTVYLQMNSLKPEDTAVYYCNARVRYYFAFWRDYWGQGTQVTVSS | low polyreactivity |
| QVQLVESGGGLVQAGGSLRLSCAASGLTFSKNAMGWYRQAPGKERELVATISYSSSRTNYADSVKGRFTISRDNAKNTVYLQMNSLKPEDTAVYYCAARVYKGWPTHYDYWGQGTQVTVSS | high polyreactivity |
| QVQLVESGGGLVQAGGSLRLSCAASGLTFSLNAMGWYRQAPGKERELVAAIRGSGGSTYYADSVKGRFTISRDNAKNTVYLQMNCLKPEDTAVYYCNADQLVWQRYGVLYEYDYWGQGTQVTVSS | high polyreactivity |
| QVQLVESGGGLVQAGGSLRLSCAASGLTFSLYALGWYRQAPGKERELVAAISWTGGSTYYADSVKGRFSISRDNAKNTVYLQMKSLKPEDTAVDYCNARYTLFARYGYDYWGQGTQVTVSS | low polyreactivity |
| QVQLVESGGGLVQAGGSLRLSCAASGLTFSLYAMAWYRQAPGNESELVAANSWTGGSTYYADSVKGRFTISRDNAKNTVYLHMNSLKPEDTAVYYCNARYTLFARYGYDYWGQGTQVTVSS | low polyreactivity |
| QVQLVESGGGLVQAGGSLRLSCAASGLTFSNYAMGWYRQAPGKERELVAAISASGGSTYYADSVKGRFTISRDNAKNTVYLQMNSLKPEDTAVYYCAAATTRPVYPANDDYWGQGTQVTVSS | low polyreactivity |
| QVQLVESGGGLVQAGGSLRLSCAASGLTFSRNAMGGYRQAPGKERELVAGISVSGSITFYADSVKGRFTISRDNAKNTVYLQMNSLKPEDTAVYYCAARYRYRYTPSVTGYDYWGQGTQVTVSS | high polyreactivity |
| QVQLVESGGGLVQAGGSLRLSCAASGLTFSRNAMGWYRRAAGKERELVAAITKSGARTYYADSVKGRFTISRDNAKNTVYLQMNSLKPEDTAVYYCAADALNTYYYWGQGTQVTVSS | high polyreactivity |
| QVQLVESGGGLVQAGGSLRLSCAASGLTFSSYTMGWYRQAPGKERELVAAISSGGSTYYADSVKGRFTISRDNAKNTVYLQMNSLKPEDTAVYYCAAAFRYTPLSDHGYWGQGTQVTVSS | high polyreactivity |
| QVQLVESGGGLVQAGGSLRLSCAASGLTFSVYAMGWYREAPGKERELVAGITSSVGDTYYADSVKGRFTISRDNAKNTVYLQMNSLKPEDTAVYYCNAKYRTFVSKHDYWGQGTQLTVSS | low polyreactivity |
| QVQLVESGGGLVQAGGSLRLSCAASGLTFSVYTMGWYRQAPGKERELVAAITTSGGRTYYADSVKGRFTISRDNAKNTVYLQMNSLKPEDTAVYYCAAVRTGDTTGTMGYWGQGTQVTVSS | high polyreactivity |
| QVQLVESGGGLVQAGGSLRLSCAASGLTFSYYAMGWYRQAPGKERELVAAISGRGSTYYADSVKGRFTISRDNAKNTVYLQMNSLKPEDTAVYYCNAYGRFGLYDYWGQGTQVTVSS | high polyreactivity |
| QVQLVESGGGLVQAGGSLRLSCAASGLTFSYYARGWYRQAPGKERELVAAISWSGDSTYYADSVKGRFTISRDNAKNTVYVQMHSLKPEDTAVYYCAVVSDFYTPYTGWPFLDYEYWGQGTQVTVSS | low polyreactivity |
| QVQLVESGGGLVQAGGSLRLSCAASGLTFTLNAMGWYRQAPGKERELVATISQDGGGTTYADSVKGRFTISRDNAKNTVYLQMNSLKPEDTAVYYCATTLPPSVWGEWSGTRYPYDYWGQGTQVTVSS | low polyreactivity |
| QVQLVESGGGLVQAGGSLRLSCAASGLTFTTYAMGWYRQAPGKERELVAAISRRGSRTYYADSVKGRFTISRDNAKNTVYLQMNILKPEDTEVYYCNAMTGSFKTYSFDYWGHGTQVTVSS | high polyreactivity |
| QVQLVESGGGLVQAGGSLRLSCAASGLTFTWYTMGWYRQAPGKERELVAAITSGGSTNYADSVKGSFTISRDNAKNTVYLQMNSLKPEDTAVYYCAASRTFYWWEYGYWGQGTQVTVSS | high polyreactivity |

| Sequence | polyreactivity (PSR sort gate) |
| --- | --- |
| QVQLVESGGGLVQAGGSLRLSCAASGLTFVANAMGWYRQAPGKERELVAAIDYGGGHTYYADSVKGRFTISRDYAKNTVYLQMNSLKPEDTAVYYCAVGLPHGGRRLYGSWYRFDYWGQGTQVTVSS | low polyreactivity |
| QVQLVESGGGLVQAGGSLRLSCAASGLTFVANAMGWYRQAPGKERELVAAISRRGTRTYYADSVKGRFTISRDNAKNTVYLQMNSLKPEDTAVYYCAAEYNSEYDYWGQGTQVTVSS | high polyreactivity |
| QVQLVESGGGLVQAGGSLRLSCAASGLTFVDNAMGWYRQAPGKERELVAAISYNGGSTYYADSVMGRFTISRDNAKNTVYLLMNSLKPEDTAVYYCAADISVGRYGDMDYWGQGTQVTVSS | low polyreactivity |
| QVQLVESGGGLVQAGGSLRLSCAASGLTFVDNAMGWYRQAPGKESELVAAITKRGGRTYYADSVKGRFTISRDNAKNTFYLQMNSLKPEDTAVYYCARESGNDSSRRLDYWGQGTQVTVSS | low polyreactivity |
| QVQLVESGGGLVQAGGSLRLSCAASGLTFVDYAMGWYRPAPGKERELVAGISYSGGSTYYADSVKGRFTISRDNAKNTVYLQMNSLKPEDTAVYYCAAKYRRPRYGYWGQGTQVTVSS | high polyreactivity |
| QVQLVESGGGLVQAGGSLRLSCAASGLTFVKNAMGWYRQAPGKDRELVATISSGGSTNYADSVKGRFTISRDNAKNTVYLQMNSLKPEDTAVYYCNKDITGVLLWIWWDRYDYWGQGTQVTVSS | high polyreactivity |
| QVQLVESGGGLVQAGGSLRLSCAASGLTFVPNAMGWYRQAPGKERELVAAISNNGGRTYYADSVKGRFTISRDNAKNTVYLQMNSLKPEDTAVYYCAKYLSPGERHSYDYWGQGTQVTVSS | high polyreactivity |
| QVQLVESGGGLVQAGGSLRLSCAASGLTFVQYAMGWYRQAPGKERELVAAISRNGGSTYYADSVKGRFTISRDNAKNTVYLQMNSLKPEDTAVYYCATRISYPWWAYDYWGQGTQVTVSS | high polyreactivity |
| QVQLVESGGGLVQAGGSLRLSCAASGLTFVRYAMGWYRQAPGKERELVAAISARGGSTYYADSVKGRFTISRDNAKNTVYLQMNSLKPEDTAVYYCNTVRVHGFPIDRIYDYWGQGTQVTVSS | high polyreactivity |
| QVQLVESGGGLVQAGGSLRLSCAASGLTFVSYAMGWSRQAPGQEREFVAAINRSGGSPYYADSVKGRFTISRDNAKTTVYLQMNSLKPEDTALYYCAARRNLAYYHSGYWGQGTQVTVSS | high polyreactivity |
| QVQLVESGGGLVQAGGSLRLSCAASGLTFVWYGMGRYRQAPGKERELVAAITRGGSTYYADSVKGRFTISRDNAKNTVYLQMNSLKPEDTAVYYCAARRWERRVRPGYYPYDYWGQGTQVTVSS | high polyreactivity |
| QVQLVESGGGLVQAGGSLRLSCAASGLTFVYNTMGWYRQAPGKERELVAAINWSGGRTYYADSVKGRFTISRDNAKNTVYLQMNSLKPEDTAVYYCAALYVPNTPTYKYDYWGQGTQVTVSS | low polyreactivity |
| QVQLVESGGGLVQAGGSLRLSCAASGLTFVYYAMGWYRQAPGKERELVAAISESGTSTYYADSVKGRFTISRDNAKNTVYLQMNSLKPEDTAVYYCAAKDSYYEMDYWGQGTQVTVSS | high polyreactivity |
| QVQLVESGGGLVQAGGSLRLSCAASGLTFVYYAMGWYRQAPGNERELVAAISRRGGSTNYADSVKGRFTISRDNAKNTVYLQMNSLKPEDTAVYYCAATSRYFQPPGYGGGRIGYGYWGQGTQVTVSS | high polyreactivity |
| QVQLVESGGGLVQAGGSLRLSCAASGLTFWDNAMGWYRQAPGKERELVAAIRGGGSTYYADSVKGRFTISRDNAKNTVYLQMNSLKPEDTAVYYCNAESYQDTLFGADNDYDYWGQGTQVTVSS | low polyreactivity |
| QVQLVESGGGLVQAGGSLRLSCAASGLTFWSYAMGWYRQAPGKERELVAAISKRGGSTYYADSVKGRFTISRDNAKNTVYLQMNSLKPEDTAVYYCAARTFRALNKYYYWGQGTQVTVSS | high polyreactivity |
| QVQLVESGGGLVQAGGSLRLSCAASGLTFWYYDMGWYRQAPGKERELVAAISGTGSTYADSVKGRFTISRDNAKNTVYLQMNSLKPEDTAVYYCAADYSGTPYAVYWQWGDYDYWGQGTQVTVSS | low polyreactivity |
| QVQLVESGGGLVQAGGSLRLSCAASGLTFYHYDMGWYRQAPGIETELVAAITNGGSTYYADSVKGRFTISRDNAKNTVYLQMNSLKPEDTAVYYCAADGSGYYDWYYYWGQVTQVTVSS | low polyreactivity |
| QVQLVESGGGLVQAGGSLRLSCAASGLTFYKNAMGWYRQAPGKEKELVAAISDSGGSTYYADSVKGRFTISRDNAKNTVYLQMNSLKPEDTAVCYCNARRRVYYKGFDYWGQGTQVTVSS | high polyreactivity |
| QVQLVESGGGLVQAGGSLRLSCAASGLTFYLYAMGWYRQAPGKERELVAAITSGGSTYYADSVKGRFTISRDNAKNTVYLQMNSLKPEDTAVYYCNKLTYGRVWDHHYDYWGQVTQVTVSS | low polyreactivity |
| QVQLVESGGGLVQAGGSLRLSCAASGLTFYPYAMGWYRQAPGKERELVAAINWSGTTTYYADSVKGRFTISRDNAKNTVYLQMNSLKPEDTAVYYCAAHYTTFIPSPDGDYLGQGTQVTVSS | low polyreactivity |
